Measured values: patent publication US20240270828A1

Target: SARS-CoV-2 S (SARS-CoV-2) (UniProt P0DTC2)
Assay: SPR Biacore T200, hmAb captured, S injected, 1:1 fit

Row | Substance | Kd
1 | CC40.8 (antibody) | 6.69 nM
2 | CV3-25 (antibody) | 13.2 nM
3 | S2P6 (antibody) | 32 nM
